Results reported in patent publication US20230416329A1 (INSTITUTE OF MATERIA MEDICA CHINESE ACADEMY OF MEDICAL …, published 2023).
Bridge positions count the residues as written; N and C are the ends. Square brackets hold non-standard residues; d marks the D form. Ends that are not written are not given here. Hyp = O=C(O)[C@@H]1C[C@@H](O)CN1; hCys = N[C@@H](CCS)C(=O)O; Nle = CCCC[C@H](N)C(=O)O

Tests used:
[1] = target: T1, PCSK9 protein (UniProt Q8NBP7 31-692, limits assumed); experiment: PCSK9-LDLR in vitro binding assay kit, OD450/540; peptide 50 µM, PCSK9 75 ng/mL; inhibition of PCSK9 binding to LDLR
T1 construct: Kit reagent; also called proprotein convertase subtilisin/kexin type 9

[2] = target: bovine trypsin (bovine, UniProt P00760 24-246); experiment: trypsin inhibition, BApNA substrate
Method: The substrates N-succinyl-Ala-Ala-Pro-Phe-p-nitroaniline (AAPFpNA), Nα—Benzoyl-L-arginine-4-nitroaniline hydrochloride (BApNA) and N-succinyl-[…] (AAApNA) are used in competitive binding reaction to determine the inhibitory activities against α-chymotrypsin, bovine trypsin, and porcine pancreatic elastase, respectively. Experiments for α-chymotrypsin and bovine trypsin inhibition were measured in 20 mM CaCl₂, 50 mM Tris-HCl buffer (pH 7.8), and that for porcine elastase inhibition was measured in 50 mM Tris-HCl buffer (pH 8.0). The concentration of the peptide was measured using optical density (OD) at 280 nm. The Michaelis constant (Kₘ) of the enzyme hydrolysis substrate is calculated from the initial rate of substrate hydrolysis at 405 nm. The absorbance value of the substrate was measured at 405 nm after complete hydrolysis. All data were processed using nonlinear regression.
(1) Added a total 190 μL of reaction buffer (20 mM CaCl₂ and 50 mM Tris-HCl, pH 7.8) along with different concentrations of anti-trypsin peptides (BTs) into the pre-cooled 96-well plate, followed by preheating at 37° C., and spined down at 500 rpm for 5 min. Next added 10 μL of 1 μM trypsin, incubated at 37° C., and then spined down at 500 rpm for 10 min. Finally, added 5 μL of 50 mM BApNA, and mixed by centrifugation at 500 rpm for 1 min. […] The experiment was performed in triplicate. The blank control only contained the reaction buffer and the substrate as the minimum absorption value (Min OD_{405 nm}). The negative control only contained the reaction buffer, the enzyme and the substrate as the maximum absorption value (Max OD_{405 nm}). […] (2) In the reaction system of 205 μL, the final concentrations of trypsin and BApNA were 50 nM and 1.22 mM, respectively. [0456] (3) Data statistics

[3] = target: T2, porcine pancreatic elastase (porcine, UniProt P00772 27-266); experiment: elastase inhibition, Ki=IC50/(1+S/Km)
T2 construct: substrate AAApNA

[4] = target: T2, porcine pancreatic elastase; experiment: elastase inhibition, AAApNA substrate, OD405

Sequence of bovine trypsin (P00760 24-246): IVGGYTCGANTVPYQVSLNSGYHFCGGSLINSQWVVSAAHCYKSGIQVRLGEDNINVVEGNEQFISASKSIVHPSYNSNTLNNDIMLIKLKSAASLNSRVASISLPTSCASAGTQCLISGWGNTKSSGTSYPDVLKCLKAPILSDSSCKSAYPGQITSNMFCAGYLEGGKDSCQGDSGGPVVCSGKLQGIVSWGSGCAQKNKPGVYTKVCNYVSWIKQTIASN
T2 sequence (P00772 27-266 limits assumed): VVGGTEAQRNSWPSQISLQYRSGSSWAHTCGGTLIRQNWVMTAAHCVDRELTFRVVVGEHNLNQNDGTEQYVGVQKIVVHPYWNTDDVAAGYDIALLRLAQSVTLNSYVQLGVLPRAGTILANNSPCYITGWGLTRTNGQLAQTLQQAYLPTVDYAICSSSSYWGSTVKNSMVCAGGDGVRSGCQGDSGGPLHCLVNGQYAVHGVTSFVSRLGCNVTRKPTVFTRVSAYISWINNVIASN

Binder	Inhibitory rate (%) [1]	IC50 [2]	Ki [2]	Ki [3]	IC50 [4]
TVFTSWEEALDWVCGRATKSIPPICF (disulfide 14-25 (inferred), Hybrid of the Pep2-8 analogue with the anti-trypsin scaffold BT9; A disulfide bond joins the two Cys of the scaffold) [PCSK9_2]	89.9%				
[hCys]GRATKSIPPIAF[hCys] (disulfide 1-14) [BT29]		10600 nM	2260 nM		
GTCTRSIPPICNPN (disulfide 3-11 (inferred)) [BT23]		1820 nM	390 nM		
CGI[Nle]TASIPPICQ (disulfide 1-12 (inferred), disulfide bond between the two Cys) [EC32]				6110 nM	21400 nM
CGRATKSIPPIAFC (disulfide 1-14 (inferred)) [BT11]		2200 nM	470 nM		
CGLATLSIPPICQ (disulfide 1-12 (inferred), disulfide bond between the two Cys) [EC7]				9620 nM	33700 nM
CGILTASIPPICQ (disulfide 1-12 (inferred), disulfide bond between the two Cys) [EC33]				7580 nM	26500 nM
CAIATASIPPICQ (disulfide 1-12 (inferred), disulfide bond between the two Cys) [EC45]				13400 nM	47000 nM
WEEALDWVCGRATKSIPPICFTVFTS (disulfide 9-20 (inferred), A disulfide bond joins the two Cys of the scaffold) [PCSK9_4]	41.4%				
SNGNAVEDGGLCTASIPPQCY (disulfide 12-20 (inferred), disulfide bond between the two Cys; peptide name, not a potency value) [EC50]				280 nM	970 nM
LCTASIPPICQ (disulfide 2-10 (inferred), disulfide bond between the two Cys) [EC12]				110 nM	400 nM
VCTASIPPICQ (disulfide 2-10 (inferred), disulfide bond between the two Cys) [EC22]				110 nM	400 nM
FCTASIPPICQ (disulfide 2-10 (inferred), disulfide bond between the two Cys) [EC24]				640 nM	2230 nM
LCTASNPPICQ (disulfide 2-10 (inferred), disulfide bond between the two Cys) [EC25]				300 nM	1050 nM
ICTASIPPICQ (disulfide 2-10 (inferred), disulfide bond between the two Cys) [EC23]				70 nM	250 nM
LCTASIPPQCQ (disulfide 2-10 (inferred), disulfide bond between the two Cys) [EC18]				270 nM	960 nM
LCTLSIPPQCY (disulfide 2-10 (inferred), disulfide bond between the two Cys) [EC2]				910 nM	3190 nM
LCTASIPPICR (disulfide 2-10 (inferred), disulfide bond between the two Cys) [EC21]				4370 nM	15300 nM
YCTASIPPICQ (disulfide 2-10 (inferred), disulfide bond between the two Cys) [EC29]				260 nM	920 nM

Binder	Inhibitory rate (%) [1]	IC50 [2]	Ki [2]	Ki [3]	IC50 [4]
YCTASIPPQCY (disulfide 2-10 (inferred), disulfide bond between the two Cys) [EC14]				2040 nM	7140 nM
ICTASIPPQCQ (disulfide 2-10 (inferred), disulfide bond between the two Cys) [EC19]				330 nM	1140 nM
LCTASIPPQCY (disulfide 2-10 (inferred), disulfide bond between the two Cys) [EC1]				330 nM	1170 nM
ICTASIP[Hyp]ICQ (disulfide 2-10 (inferred), disulfide bond between the two Cys) [EC48]				160 nM	550 nM
ICTASYPPQCR (disulfide 2-10 (inferred), disulfide bond between the two Cys) [EC27]				2440 nM	8530 nM
CWTKSIPPKPC (disulfide 1-11 (inferred)) [BT36]		4650 nM	990 nM		
CGRATKSIPPIAC (disulfide 1-13 (inferred)) [BT13]		31500 nM	6700 nM		
CGRATKSLPPACF (disulfide 1-12 (inferred)) [BT14]		1650 nM	350 nM		
CGRATKSIPPIAFGC (disulfide 1-15 (inferred)) [BT32]		1540 nM	330 nM		
[hCys]GRATKSIPPIAFG[hCys] (disulfide 1-15) [BT33]		5570 nM	1190 nM		
QGADTPPVGGLCTASIPPQCY (disulfide 12-20 (inferred), disulfide bond between the two Cys) [EC49]				280 nM	990 nM
MCTASMPPQCH (disulfide 2-10 (inferred), disulfide bond between the two Cys) [EC26]				6840 nM	23900 nM
CGRATKS[Nle]PPICF (disulfide 1-12 (inferred)) [BT28]		290 nM	60 nM		
CGRATKSIPPQCY (disulfide 1-12 (inferred)) [BT12]		8460 nM	1800 nM		
ICTASI[Hyp]PICQ (disulfide 2-10 (inferred), disulfide bond between the two Cys) [EC47]				110 nM	400 nM
CGAKGTKSIPPICFPD (disulfide 1-13 (inferred)) [BT2]		3030 nM	650 nM		
CGAKATKSIPPICFPD (disulfide 1-13 (inferred)) [BT3]		680 nM	140 nM		
CGRATKSIPPICFGTVFTSWEEALDWV (disulfide 1-12 (inferred), Hybrid with the anti-trypsin scaffold BT9; A disulfide bond joins the two Cys of the scaffold) [PCSK9_3]	89.9%				
